# Test results from patent US20190065668A1, “STRUCTURE OF […] IN COMPLEX WITH AN INHIBITOR AND USES THEREOF” (priority 2015, published 2019).
# Columns and labels:
# [1] = molecular target: recombinant P. vivax plasmepsin V (residues R35-R476), N-terminal fusion tag removed with TEV protease (Plasmodium vivax) (UniProt A5K302); assay: SPR, Biacore 4000, plasmepsin V amine-coupled on a CM5 chip, compound as analyte, 1:1 fit, 25 °C
# [2] = molecular target: recombinant P. vivax plasmepsin V (residues R35-R476), N-terminal fusion tag removed with TEV protease (Plasmodium vivax) (UniProt A5K302); assay: cell-based or functional assay
# [3] = molecular target: recombinant P. falciparum plasmepsin V (residues N80-R528) (Plasmodium falciparum) (UniProt Q8I6Z5); assay: cell-based or functional assay
# recombinant P. falciparum plasmepsin V (residues N80-R528) (Plasmodium falciparum), sequence (Q8I6Z5 80-528): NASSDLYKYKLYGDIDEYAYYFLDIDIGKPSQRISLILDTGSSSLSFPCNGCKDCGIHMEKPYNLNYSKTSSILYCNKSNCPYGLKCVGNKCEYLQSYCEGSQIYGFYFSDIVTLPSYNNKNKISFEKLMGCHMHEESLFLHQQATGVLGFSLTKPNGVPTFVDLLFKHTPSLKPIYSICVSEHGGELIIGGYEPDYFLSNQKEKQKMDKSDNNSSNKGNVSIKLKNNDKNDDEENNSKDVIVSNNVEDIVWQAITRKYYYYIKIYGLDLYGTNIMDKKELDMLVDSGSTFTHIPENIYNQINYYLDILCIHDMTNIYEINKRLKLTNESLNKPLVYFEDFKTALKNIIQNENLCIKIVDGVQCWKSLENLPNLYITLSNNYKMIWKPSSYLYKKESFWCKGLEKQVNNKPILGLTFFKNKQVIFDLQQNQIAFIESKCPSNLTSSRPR
# [4] = molecular target: recombinant P. vivax plasmepsin V (residues R35-R476), N-terminal fusion tag removed with TEV protease (Plasmodium vivax) (UniProt A5K302); assay: SPR, Biacore 4000, plasmepsin V amine-coupled on a CM5 chip, 1:1 fit
# [5] = molecular target: recombinant P. vivax plasmepsin V (residues R35-R476), N-terminal fusion tag removed with TEV protease (Plasmodium vivax) (UniProt A5K302); assay: SPR, Biacore 4000, plasmepsin V amine-coupled on a CM5 chip
# recombinant P. vivax plasmepsin V (residues R35-R476), N-terminal fusion tag removed with TEV protease (Plasmodium vivax), sequence (A5K302 35-476, tags or fused parts left off): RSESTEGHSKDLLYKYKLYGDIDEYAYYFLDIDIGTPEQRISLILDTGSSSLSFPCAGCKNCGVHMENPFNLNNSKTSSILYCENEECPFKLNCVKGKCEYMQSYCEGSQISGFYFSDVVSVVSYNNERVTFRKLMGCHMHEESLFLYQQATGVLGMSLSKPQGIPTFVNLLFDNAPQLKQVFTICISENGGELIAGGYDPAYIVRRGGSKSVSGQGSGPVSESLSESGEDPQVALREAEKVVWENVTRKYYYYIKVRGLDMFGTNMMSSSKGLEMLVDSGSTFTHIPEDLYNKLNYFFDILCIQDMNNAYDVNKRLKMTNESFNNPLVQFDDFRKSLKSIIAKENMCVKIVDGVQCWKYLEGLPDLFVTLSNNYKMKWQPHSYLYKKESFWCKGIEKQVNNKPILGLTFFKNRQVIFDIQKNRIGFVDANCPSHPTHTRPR
Substance,Kd [1],"IC50, inhibition of cleavage of the fluorogenic KAHRP PEXEL peptide [2]","IC50, inhibition of cleavage of the fluorogenic KAHRP PEXEL peptide [3]",koff [4],fold affinity against WEHI-916 [5]
WEHI-916 (peptide),42 nM,8.2 nM,12.9 nM,0.00247 s⁻¹,–
"WEHI-842, Cbz-Cav(NH2)-Val-Sta-NH(CH2)2Ph.TFA (peptide)",13.4 nM,1.6 nM,–,0.00111 s⁻¹,> 2 fold
